Results on 3 substances are retold here after patent publication US20180284130A1.

The target of assay [1] is obinutuzumab (GAZYVA). Description: ELISA; mAb at 1000 and 315 ng/ml captured, ratio of A450 obinutuzumab/rituximab (FIG. 8H). In general terms: ELISA stands for enzyme-linked immunosorbent assay.
The target in assay [2] is obinutuzumab (GAZYVA). Briefly: ELISA; mAb captured by F(ab')2 anti-human F(ab')2, biotinylated dimer, streptavidin-HRP (FIG. 8C).
In assay [3] the target is rituximab. Description: flow cytometry; CD19 B cells in PBMC opsonised with 2.5 µg/ml rituximab, dimer 0.2 µg/ml (FIG. 14F). For orientation: A flow cytometer gives signals particle by particle.
Assay [4] concerns the target recombinant human anti-TNP IgG2 (chimeric, TIB142 VH with human IgG2 constant region) (human) [IgG part: P01859]. Briefly: ELISA; anti-TNP IgG on TNP-BSA, biotinylated dimer; EC50 as IgG concentration (FIG. 3 D, L).
For assay [5], the target named is rituximab. Description: flow cytometry; CD19 B cells in PBMC opsonised with 2.5 µg/ml rituximab, dimer 0.2 µg/ml (FIG. 14E).

Turning to Human rsFcγRIIIa F158 dimer (receptor), the binding preference over rituximab with obinutuzumab (GAZYVA) [1] came out at 10 fold; with obinutuzumab (GAZYVA) [2], 20 fold.
Human rsFcγRIIIa V158 dimer (receptor): the median fluorescence intensity (MFI) with rituximab [3] was 11000 MFI.
For “Human rsFcγRIIa H131 dimer (from UniProt P12318 34-215) (receptor)”, in assay [4], the concentration for a half-maximal effect (EC50) amounted to 0.3 µg/mL. The median fluorescence intensity (MFI) with rituximab [5] was determined as 4000 MFI.

For orientation: EC50 means the concentration that produces a half-maximal response.
